Like-named read-outs stand apart in the source and are kept apart here.
Key:
[1] = target: Zfp206SCANΔH1–Zfp110SCAN fusion protein (not stated | mouse) (UniProt Q3URR7); test: SEC
[2] = target: Zfp206SCAN–Zfp110SCAN ΔH1 fusion protein (not stated | mouse) (UniProt Q3URR7); test: SEC
[3] = target: the molecule itself; test: SEC
[4] = target: the molecule itself; test: SEC; remark: listed apart in the source
[5] = target: the molecule itself

## Zfp206SCANΔH1–Zfp110SCAN fusion protein (from UniProt Q3URR7 36-128)
[1]
  stoichiometry N: 2

## Zfp206SCAN–Zfp110SCAN ΔH1 fusion protein (from UniProt Q3URR7 36-128)
[2]
  stoichiometry N: 2

B1: Zfp206SCAN–ZNF174SCAN fusion protein (other)
chain: RPRPEVAHQLFRCFQYQEDMGPRASLGRLRELCNHWLRPALHTKKQILELLVLEQFLSVLPPHVLSRLHGQPLRDGEEVVQLLEGVPRDISHMRQGFRHFCYQEVSGPQEALSCLQQLCRQWLQPELHTKEQILELLVMEQFLVILPPEIQAQVWHRYPKSSREIVTLVEDLHR
[3]
  stoichiometry N: 2

B2: Zfp110SCAN (SCAN domain of Zfp110) (domain or fragment, mouse, UniProt A0A0R4J249 154-247, looked up)
chain: RLTDTEASRQKFRHFQYEESAGPQKAMSQLRKLCHQWLQPNTRSKKQILELLVLEQFLNALPEKFRVWVESQHPEDCKAVVALLENMTSVSKDD
[4]
  stoichiometry N: 2

B3: Zfp206SCAN (SCAN domain of Zfp206, tag-free) (domain or fragment)
chain: GRPRPEVAHQLFRCFQYQEDMGPRASLGRLRELCNHWLRPALHTKKQILELLVLEQFLSVLPPHVLSRLHGAPLRDGEEVAQLEGVPRDISHM
[4]
  stoichiometry N: 2

B4: MBP-Zfp206SCAN (domain or fragment)
chain: B3 chain
[5]
  stoichiometry N: 2

— publication PMC3458555 (Nucleic Acids Research, 2012)
